Experimental findings from patent US20180118789A1 (REGENTS OF THE UNIVERSITY OF MINNESOTA, published 2018) are described below.

What all share (test): cell-based or functional assay
In experiment [1] the target is T1, mouse melanocortin 4 receptor (mouse, UniProt P56450 1-332).
The target of experiment [2] is T2, mouse melanocortin 1 receptor (mouse, UniProt Q01727 1-315).
Experiment [3] concerns the target T3, mouse melanocortin 5 receptor (mouse, UniProt P41149 1-325).
The target in experiment [4] is T4, mouse melanocortin 3 receptor (mouse, UniProt P33033 1-323).
T4 sequence (P33033 whole entry): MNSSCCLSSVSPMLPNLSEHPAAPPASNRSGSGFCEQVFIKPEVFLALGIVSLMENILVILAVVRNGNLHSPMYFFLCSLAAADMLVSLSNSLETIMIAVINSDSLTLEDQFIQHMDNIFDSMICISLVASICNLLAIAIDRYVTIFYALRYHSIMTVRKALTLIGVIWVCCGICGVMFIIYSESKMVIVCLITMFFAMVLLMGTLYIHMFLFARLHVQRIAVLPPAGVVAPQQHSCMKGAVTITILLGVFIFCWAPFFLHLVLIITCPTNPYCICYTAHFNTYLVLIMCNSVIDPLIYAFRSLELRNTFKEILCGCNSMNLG
The target of experiment [5] is T1, mouse melanocortin 4 receptor. The source holds these as a separate data set.
For experiment [6], the target named is T2, mouse melanocortin 1 receptor. The source holds these as a separate data set.
Experiment [7] has as its target T3, mouse melanocortin 5 receptor. The source holds these as a separate data set.
Experiment [8] concerns the target T4, mouse melanocortin 3 receptor. The source holds these as a separate data set.

Non-standard residues stand in square brackets, D forms with d. Dap = NC[C@H](N)C(=O)O

T2 sequence (Q01727 whole entry): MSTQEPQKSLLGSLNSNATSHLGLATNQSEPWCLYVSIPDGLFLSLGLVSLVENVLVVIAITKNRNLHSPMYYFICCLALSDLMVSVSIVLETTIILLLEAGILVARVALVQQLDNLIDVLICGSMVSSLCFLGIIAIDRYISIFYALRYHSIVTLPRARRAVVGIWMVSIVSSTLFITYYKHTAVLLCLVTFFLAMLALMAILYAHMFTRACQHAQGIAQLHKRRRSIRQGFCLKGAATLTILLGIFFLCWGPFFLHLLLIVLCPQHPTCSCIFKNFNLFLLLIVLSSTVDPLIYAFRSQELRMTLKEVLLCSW
T3 sequence (P41149 whole entry): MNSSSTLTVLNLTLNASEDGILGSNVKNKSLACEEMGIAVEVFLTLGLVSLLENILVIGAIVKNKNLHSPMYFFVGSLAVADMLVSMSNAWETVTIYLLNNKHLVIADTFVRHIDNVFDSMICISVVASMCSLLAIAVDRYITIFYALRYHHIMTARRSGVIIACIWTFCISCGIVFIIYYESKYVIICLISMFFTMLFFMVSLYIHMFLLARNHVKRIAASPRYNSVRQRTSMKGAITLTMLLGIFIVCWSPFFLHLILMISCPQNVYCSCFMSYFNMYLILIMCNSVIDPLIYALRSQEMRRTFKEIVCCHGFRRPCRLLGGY
T1 sequence (P56450 whole entry): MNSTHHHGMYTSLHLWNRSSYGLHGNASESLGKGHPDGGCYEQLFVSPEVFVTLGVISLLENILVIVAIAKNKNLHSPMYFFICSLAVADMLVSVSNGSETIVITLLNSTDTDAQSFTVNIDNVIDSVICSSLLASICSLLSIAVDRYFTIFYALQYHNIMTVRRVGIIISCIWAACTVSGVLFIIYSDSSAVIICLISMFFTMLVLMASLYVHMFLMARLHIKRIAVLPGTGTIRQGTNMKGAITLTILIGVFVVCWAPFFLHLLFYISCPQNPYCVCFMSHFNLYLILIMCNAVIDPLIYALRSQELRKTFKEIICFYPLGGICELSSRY

For the molecule cyclo(P[dF]RW[Dap]AF[dP]) (also: TFA salt) [MDE5-151-1c, c[Pro-DPhe-Arg-Trp-Dap-Ala-Phe-DPro]], the “EC50 (nM), agonist, cAMP AlphaScreen” value came to 100 nM in experiment [1] and 46 nM in experiment [3]. The “apparent EC50 (nM), partial agonist, cAMP AlphaScreen” value (“apparent EC50 (nM), partial agonist” below) in experiment [2] stood at 190 nM; in experiment [4] it was 3000 nM. Moreover, the “partial agonist, percent maximal NDP stimulation” value was determined as 45% in experiment [2] and 70% in experiment [4].

As to cyclo(PH[dF]RW[Dap]A[dP]) (also: TFA salt) [MDE6-5-2c, c[Pro-His-DPhe-Arg-Trp-Dap-Ala-DPro]], the “EC50 (nM), agonist, cAMP AlphaScreen” value in experiment [1] turned out to be 1.6 nM; in experiment [2], 1.1 nM; in experiment [3], 0.3 nM; in experiment [4], 40 nM.

As to cyclo(P[dF]RW[dP]) (also: TFA salt) [MDE5-147-1c, c[Pro-DPhe-Arg-Trp-DPro]], the entries for the “percent maximal stimulatory response observed at 100 µM” value in experiment [1] and in experiment [3] were 50% and 75%, respectively. Further, the “EC50 (nM), agonist, cAMP AlphaScreen” value in experiment [2] amounted to 1800 nM. Further, the “EC50 (nM), agonist, cAMP AlphaScreen (lacked agonist activity at up to 100 µM)” value (“EC50 … (lacked agonist activity at up to 100 µM)” below) in experiment [4] was more than 100000 nM.

Turning to cyclo(P[dF]RW[Dap]A[dP]) (also: TFA salt) [MDE6-5-1c, c[Pro-DPhe-Arg-Trp-Dap-Ala-DPro]], the “EC50 (nM), agonist, cAMP AlphaScreen” value in experiment [1] turned out to be 150 nM; in experiment [2], 600 nM; in experiment [3] it was 48 nM. In addition, the “percent maximal stimulatory response observed at 100 µM” value in experiment [4] was found to be 70%.

For the molecule cyclo(P[dF]RWN[dP]) (also: TFA salt) [MDE6-10-1c, c[Pro-DPhe-Arg-Trp-Asn-DPro]], the “EC50 (nM), agonist, cAMP AlphaScreen” value is 1100 nM in experiment [1] and 40 nM in experiment [2]. The “percent maximal stimulatory response observed at 100 µM” value in experiment [3] is 25%. In addition, the “EC50 … (lacked agonist activity at up to 100 µM)” value in experiment [4] is more than 100000 nM. Also, in experiment [5], the “fold decrease of agonist potency against MDE5-149-1c” value came to 8 fold. Besides, the “fold increase of agonist potency over MDE5-149-1c” value in experiment [6] was determined as 10 fold.

With cyclo(PH[dF]RWNA[dP]) (also: TFA salt) [MDE6-3-2c, c[Pro-His-DPhe-Arg-Trp-Asn-Ala-DPro]], the “EC50 (nM), agonist, cAMP AlphaScreen” value turned out to be 29 nM in experiment [1], 12 nM in experiment [2], 2.1 nM in experiment [3] and 300 nM in experiment [4]. Besides, the “fold loss of agonist potency relative to MDE5-149-2c” value was 21 fold in experiment [5], 34 fold in experiment [6], 5 fold in experiment [7] and 9 fold in experiment [8].

For the molecule cyclo(PH[dF]RWN[dP]) (also: TFA salt) [MDE6-10-2c, c[Pro-His-DPhe-Arg-Trp-Asn-DPro]], the “EC50 (nM), agonist, cAMP AlphaScreen” value is 170 nM in experiment [1], 50 nM in experiment [2] and 16.8 nM in experiment [3]. Besides, the “apparent EC50 (nM), partial agonist” value in experiment [4] came to 510 nM. For the same molecule, in experiment [4], the “partial agonist, percent maximal NDP stimulation” value was found to be 65%. For the same molecule, the “fold decrease of agonist potency relative to MDE5-149-2c” value in experiment [5] is 121 fold; in experiment [6], 143 fold; in experiment [7], 37 fold.

Consider cyclo(P[dF]RWNA[dP]) (also: TFA salt) [MDE6-3-1c, c[Pro-DPhe-Arg-Trp-Asn-Ala-DPro]], for which the “EC50 (nM), agonist, cAMP AlphaScreen” value in experiment [1] stood at 420 nM; in experiment [2] it was 500 nM; in experiment [3] it was 70 nM. Also, the “percent maximal stimulatory response observed at 100 µM” value in experiment [4] was 55%.

cyclo(P[dF]RW[Dap][dP]) (also: TFA salt) [MDE6-12-1c, c[Pro-DPhe-Arg-Trp-Dap-DPro]]: the “percent maximal stimulatory response observed at 100 µM” value in experiment [1] is 35%. Besides, the “apparent EC50 (nM), partial agonist” value in experiment [2] was 110 nM. Besides, in experiment [2], the “partial agonist, percent maximal NDP stimulation” value came to 75%. The “EC50 … (lacked agonist activity at up to 100 µM)” value in experiment [3] and in experiment [4] was more than 100000 nM each time.

In the case of cyclo(PH[dF]RW[dP]) (also: TFA salt) [MDE5-147-2c, c[Pro-His-DPhe-Arg-Trp-DPro]], the “percent maximal stimulatory response observed at 100 µM” value in experiment [1] stood at 65%; in experiment [4], 60%. In addition, the “EC50 (nM), agonist, cAMP AlphaScreen” value was found to be 900 nM in experiment [2] and 6000 nM in experiment [3].

cyclo(PH[dF]RW[Dap]AF[dP]) (also: TFA salt) [MDE5-151-2c, c[Pro-His-DPhe-Arg-Trp-Dap-Ala-Phe-DPro]]: the “apparent EC50 (nM), partial agonist” value in experiment [1] was 23 nM. In addition, the “partial agonist, percent maximal NDP stimulation” value in experiment [1] is 70%. The “EC50 (nM), agonist, cAMP AlphaScreen” value in experiment [2] was found to be 24 nM; in experiment [3], 18 nM; in experiment [4], 260 nM. Also, in experiment [6], the “fold decreased potency relative to MDE5-149-2c” value was found to be 70 fold.

In the case of cyclo(P[dF]RWNAF[dP]) (also: TFA salt) [MDE5-149-1c, c[Pro-DPhe-Arg-Trp-Asn-Ala-Phe-DPro]], the “EC50 (nM), agonist, cAMP AlphaScreen” value in experiment [1] is 130 nM; in experiment [2] it was 400 nM; in experiment [3], 40 nM. In experiment [4], the “percent maximal stimulatory response observed at 100 µM” value is 45%. The “fold decreased potency relative to MDE5-149-2c” value was determined as 90 fold in experiment [5], 1140 fold in experiment [6] and 90 fold in experiment [7].

With cyclo(PH[dF]RW[Dap][dP]) (also: TFA salt) [MDE6-12-2c, c[Pro-His-DPhe-Arg-Trp-Dap-DPro]], the “EC50 (nM), agonist, cAMP AlphaScreen” value in experiment [1] came to 950 nM; in experiment [2] it was 460 nM; in experiment [3], 330 nM. Further, the “percent maximal stimulatory response observed at 100 µM” value in experiment [4] was 65%. Further, the “fold decrease of agonist potency relative to MDE6-5-2c” value in experiment [5] turned out to be 593 fold; in experiment [6] it was 418 fold; in experiment [7], 1100 fold.

For the molecule cyclo(PH[dF]RWNAF[dP]) (also: TFA salt) [MDE5-149-2c, c[Pro-His-DPhe-Arg-Trp-Asn-Ala-Phe-DPro]], the “EC50 (nM), agonist, cAMP AlphaScreen” value in experiment [1] was determined as 1.4 nM; in experiment [2] it was 0.35 nM; in experiment [3], 0.45 nM; in experiment [4] it was 32 nM.
